From a protein production outcome set (Wang et al. 2014) come the findings set out here.

This series in a line: label from the status in PepcDB records.

“MTQVYKAKFGTPNRGWVIIVHGLGEHSGRYSKLVSMLVNEGYAVYTFDWPGHGKSPGKRGHTSVEEAMEIIDFIIEEINDKPFLFGHSLGGLTVIRYAETRPEKIRGVIASSPALAKSPKTPSFMVALAKILGVLLPSLTLSNGIDPNLLSRNPDAVKRYIEDPLVHDRISAKLGRSIFKNMDLAHREAHKIKVPVLLLVGTGDVITPPEGARKLYGEIKVEDKEIVEFEGAYHEIFEDPEWGEEFHKKIVEWIKKH”: the protein production entry is given as “failed”.

As for “MTRMQLHRLRYLLADVFGIVASYLSYNTLRYLTEEQERIYSTLSEYLFNAKSLWVGILYLLFWLSLFALSGYYNKPIAKSRISELLTTVASVLVGSVVVFLLLVVDDIVHDTALYLRLFFMMVATVLPWVYFPRLWVTTFGIKERKKTKGYHRVLLIGSGTIAEETASWLKSVNDMATTRLHFVPPTTREGFEQSLKSFATLVAEAVQESKPHQIILAVDCPDASFISLLLYQLYPFHMPVCVPMRSMLFAGAKVNVQGMKGEPMVDMTATNMSECAKSIKWFADRLFSLLMLILLIPVYAVIAVLVKRSSRGPVFFGQERIGLHGRPFTIYKFRTMYLDAEKDGPSLSFDGDSRVTPIGRILRKYRMDELPQFWNVLRGDMSFVGPRPERAFYIRQLVERAPYYYLLHNVRPGITSWGMVRYGYASTPDEMLERLQYDFLYYENMSLRLDIEVLLYTCQTIFKGLGK”, the protein production result is “failed”.

In the case of “MTRQLLIVPIVKLKNLLTGRWLRYAFLSVAGNALIWGTSIQYLKVTKPTYTSEFALILSGASFGVNVNLPGIGQATSSSSSAIGSSTYDARANYEYIFTSEAVLKKAAAIAKIPEEQFSKPRIKLLDNSTIMQFEVTGKSPKEAQNKSLALYQAMVHQITVLRTGEINQRKDPTQKTLLSSQQKLERAQKHLSEYKLRSGLSFPDQIGNLSSNIEQLRRQRAEAKAQENATNQKLQQLAKNIGLSPQEAADAFLLRVDQIFQQNLKDYSEATTTLEILMTKYGPNHPQVVKERIRQEAALAALLERSQILLEKPMTTTILNRLALAVNGSGRDTLFQNLVTYQSDQKGLQSQVKTLDSEIQRLEKRLEILSQRQSKLENLKRDVQIAEAMFASTLTKLDLGQGDIFAAYPLVQMLVEPNLPDQPTAPKKSFILAGSAAGSIFSTLGLCLVWIRKPWIEKLSKWLS”, the protein production result is given as “failed”.

“MTRRGGRLRTVLTVLTAWSALAGAALAGAAPAGGAPRSVPLAPGVEYTQFDIPADRGVTHAHLLSVDLADPRVRVGLLHPGAVAARAPVSRLADSQGALAGINGDFFNITETQHPGVEATGSTDGPAIADGHTLKAAVPNGQRFGPALPPGTTTEDVLGVGDDRRARLDRLALEGSVDTAAGELPLRGLNQYALPEGSVGAYTADWGSVSRARAVCGTDTDRAAPCSTDTYEVTVRDGQVVSFADSPGSGPIAAGTTVLVGREAGAQQLRKLSTGEEVSVEHRLVAAGSQVAYSFAIGGYPVLRQGKPLPGLDTVTSAVRTAVGIKDAGRRLLLLAIDGAAAYRSGLTIAEVASVMRGLGATEAFSLDGGGSTTLVARAPGATSVTVRNHPSGGAERPVPNGIGVFTRT”: the protein production entry is given as “failed”.

On to “MTRTLTTPLPTAPRAKPARRPTTLLFAYGATLNPEHIMVRLCQPKIRAIARLPDYRLGFHGHSEVWDSGLETLVDEPGAEAWGVLYELSATELDRFDAWQGVKLDGGGSYFHYPVEVIDENGQLLDALFHRKTEMGPQQPASRDYLDFILAGARARGLPARAIAVLEACTAVQARYPVPKMNTDIKALASKLSCAC”, for which the protein production entry is recorded as “failed”.

As to “MTRTPLTLEQLNALSDDAFTEHFAGVLEHSPHYARRAAAGRPFADVEEVAAAFARAVAADEPGAQVQLIRAHPDLAGKAALAGELTAESASEQTSAGLDRLSPEEYAEFQRLNAAYHERFGLPYVVCVRENTKDTIFEGARRRLTHTQEEEQAAALHEIGRIARLRILDLVQEGRQEKRMDGRLIRIPLEHHHHHH”, the protein production result was “failed”.

As for “MTRVPFTQNYRWHLPLLLLVFCCSFFINNGAIFADIMESRNIITAREMVYDHNWLVPTMNGELRLEKPPLPTWIAAITEMISPDNLPLQRAMAGFAAVMLVLFFYKFATKLTDNRTYALVSSLVLCTSYNIILMGRTATWDIYCHAFMIGAIYYLYLALRQNTCKWTYFIGAGIFMGLSFLGKGPVSFYALLLPFVCAYILYYRKETQMKGKWIALAVMILIGIVLSTWWYAYIYIYHQEMASYVFHKESSSWSNHNVRSWYYYWQFFLETGVWSLLTLTTLLVPFWKKRVESSKEYLFCLSWMLLILFFLSLLPEKKTRYLLPILLPAALTMGHLFVYWIRQAKQKMPQLKDRVLYRINAYLIVVAALALPIALYLFMYREGRMGTGMFVWLVVLFLTVAVWLFRSAFKLQPFSFLMGIVALFAVAELFVMPYIGSFVSNSDPKSISATRENPELQPLPFYHSKDEVLRIELVYEAHKKIGDMDLSNKEEIIKALPFVLISQKPAELLIPDSIRKDLNLRFIDCYDNNRWAKGHKRYDSVFISNVTIVEPIKEQ”, the protein production entry is “failed”.

As for “MTRYLRLSGLEPFVLTPDIPFVNVGERTNVTGSARFRKLITNRDYAAALEVARDQVQNGAQILDVNMDEGLIDSKAAMVEFLNLIASEPDIARVPLMIDSSKWEVIEAGLKCVQGKPVVNSISLKEGEESFRRQAGLCLAYGAAVVVMAFDEEGQADSFARKTTICARAYRILVEEVGFPPEDIIFDPNVFAVATGIEEHDNYGVDFIEAARWIRANLPHAHVSGGVSNLSFSFRGNEPVREAMHAVFLYHAIRAGMDMGIVNAGQLAVYDQIDPDLREACEDVVLNRKPKQGGTATERLLALAER”, the protein production result was “failed”.

For the sequence “MTSAFNAYTALALAIVSEVIASAFLQQSAQFTRPWPTLAMVLFYVASFYALSVAIRVIPLSIAYAIWGGVGIILTATVSFVLFRQMLDAAAFVGIGLIVSGVVIINLFSETTVH”, the protein production entry was “failed”.

On to “MTSALNRLQPLNGNNMKLKTLLLFVALIQSVVSMAQQDWKGDYTRAKQVYQLQKYEIAMEYFLPVTSPDAANPYASYAQYYYSLSAYKAGKYNEARQMLLQLINRDPNWKQISEAHYLLAGVYFELKQYRFGMTSLTFVQGMESSVTTFRQSYYAKIAPLDTLIKLQRVYSSDKELAKALFNQLAAYPVNSKNNMLYEYLAQEFKFTKLNRTVTYVTKTEYHVAVILPFNLSESNSENYKSGYAYEMYQGILTAVDSLKEDGVTIKIHTYDADRDVMKIQAILNYPEMKGMDLIIGPLFPSLIPYVTNFGELNNIPVINPISFNSNIIENKTQTLLFQPTLESIAGQVSSFAKEKFVYRKNSSKDNDLKPKNNVLIFYSTELKDSLLAVYYRDSLQVKGFKVSKFVKVTKENIGTVGKIFSDSISLLTTSHVFVASGEPVLASNIVSALEISRQNVPVITKSDWLDINNQTYEQFERRNIYIIYPDYFAFYTDAYRSFKAAYIKKYNVYPSKYTIIGYELMSLVGDKMRTAGTGYFNLMRTSPVSKGHFTAGYDFSKKPCNNYVPIYYFSDLKLTLANPFDEK”, for which the protein production result is reported as “failed”.

In the case of “MTSFDWFFVAAYLILSFGIALYFYQRAGEDTSEFFLSGRAMPWWLAGTSMVATTFAVDTPLLVTEIVAQNGIAGNWLWWNAAIGGMLTVFFFARLWRRSGVMTDVEFVEFRYSGRVAAWLRGLKALFFGLLLNILIIGWVSLAMETVIDRLFPDLTLFGQAAFSVLGREMSAALVVTGGLILLVSVYALLSGLWGVMVTDLFQFVVAMGGTIALAVLVLDMPEIGGVAGLREQLPDETFNLLPTIGGAAEGAATFSLSALAFAAYAGVQWWASWYPGAEPGGGGYIAQRMMSAKDEPNALFATLWYTIAHFCLRPWPWIIVALAALVLYPDLDEPRAGFVLVMKDVLPPGLLGLLFASFLAAFMSTVSTQLNWGVSYLVNDFWGRFVRPDADEAHYVRVSRVLTFGVALLSLVVTLFLDTIAEAWGLLLSASAGLGLVLILRWYWWRVNAWSEMAATLAPIGLTVAALVLNVFGVQVPGLQADFPLNLYSVVGFTTVVWLAATFLTRPTDAETLDAFYRTVHPGGPGWTPVAERHPDVTPDSGLGRLALDWLVGVVLVYSTLFGTGYLILGWTLWGAGCIAVALTAAAYLWRDLQRDEISLIEMKEEKDATEER”, the protein production entry was “failed”.

Turning to “MTSFQSTLDDDEDGIAEELAASQREISVAEFFEKNKHMLGFDSGARGLVTAVKEAVDNALDATEEAGILPDIYVEISEGRDYYTLIVEDNGPGITNAQIPKIFGKLLYGSRFHAREQSRGQQGIGISAAVLYSQLTSGKPVRIESRTQDSETANVYELIIDTDTNEPEISAETEVSAAKSDLRGTHGTRIEMALDANMRARGQLHDYIKHTAVVNPHARIELQEPGGELKSERAEEASLPAETDEILPHPHGVELGTLIKMLAETDSHSVSGFLQSEFTRVGSKTATGIIDAFRDEHFGREMRWRPPADADLEATVADAVANKDATHTAVFARTVADAVRDADSIAPAELGALVADAAADAQDDTGTSFGETVQANVVAAVRDALTSDRVADVLGPVDEATTVQKDDATVRGLAERIAAKFESGGDTDRVTRDTLDEYVFRAAENTAEYADATIGETARENVADALWARMATVPDDPPNTSALADDRDAASDLLAAMASVNVMAPPTSCLSPIEADQLEAGLRTEFDADFYAAATRDADVHGGDPFIVEAGIAYGGDIDSEGGVQLMRFANRVPLVYQRGACATTDVLGDIGWRNYNLSQPGGSGLPQGPAVIMVHVASTNVPFTSESKDAIANVPEIEAEIELAVREAARELKSFLQKRQSMRKRQQKQDVIMDILPTMAEKVGELTGRGGVDVSDSLARIMNNVLVERARSDDGQTVTLRVENHGTGSVDVDVTDIVSAEPDGVGDDASVVAMDDEYFVKWTPAVAGDDAAELTYSVDADADCELSVSGVADARLTVSEADT”, the protein production result is recorded as “failed”.

Consider “MTSGSRWDGIIPHPGILAFAMALYLLGFVLDASGRPLAYGFLTGDMVVHFFTFPGLREQFIDYLLATAFWIFISNITQVTVFIFSLATFYPVLKIFVLAGALLHNLLVGWGVRGLLIYAGTLHLHLEVTGCLLSLQAALVFVRSLLGTIQHRSRGPLVTALRENLAYLIPLIILLFAIAAILEVFWSTWWVYNLTHGPVSWRYFYTHVFSVEL”, for which the protein production result is reported as “failed”.

Regarding “MTSPENPDLPDADDAYVDSGPGTQPASLEDLDMDSASTMRPMATQAVYRPEFDDTDGTSRGTVVTEAYDQVTMATRALSPMRRLGGGLVEIPRVPERDPLTALMTNPVVAESKRFCWNCGKPVGRSTPDGRALSEGWCPHCGSPYSFLPQLSPGDIVADQYEIKGCIAHGGLGWVYLAFDKNVNDRPVVLKGLVHSGDAEAQAIAMAERQFLAEVTHPGIVKIYNFVEHEDKHGNPVGYIVMEYVGGTSLKQARGAKLPVAEAIGYMLEILPALGYLHSIGLAYNDLKPENIMITEEQLKLIDLGAVSRLNSYGYLYGTPGYQAPEIVRTGPTVATDIYTVGRTLAALTLSLRTRRGRYVDGLPSDDPVLETYDSYHRLLRRAIDPDPRRRFTSAEEMSSQLLGVLREVVATDTGVPRPGLSTVFSPSRSTFGVDLLVAHTDVYVDGQVHSEKLTAQEIVRALPVPLVDRTDVGAPMLVASVLSEPVHTLDQLRAARHGALDTEGIDLNESVELPLMEVRALLDLGDVAKATRKLEDLAARVGWRWRLVWFKAVSEMLSADYDSATKHFTEVLDTLPGELAPKLALAATAELAGTADELKFYKTVWSTDNGVISAGFGLARAQSVAGERDMAVQTLDEVPPTSRHFTTARLTSAVTLLSGRSTSEITEQHIRDAARRVEALPDSEPRVLQIRALVLGTALDWLADNTASSNHILGFPFTEHGLKLGVEASLRALARIAPTQSHRYALVDLANSVRPMSTF”, the protein production entry is “failed”.

With “MTSPFHRLCRTTLAAGFLFGMASAALAVGDSNDDTNPPPKTETTKTCTGGKVWDKQRKECVTPKKNSFNDDDLYKFAREFAYAGQYENAITVLNLARNQNDPRILNYLGYANRKAGRMELGMSYYRKALQADENYILARSYMGMALVEQGDIQGARVQLVEIRDRGGEDTWAYRALLQSLNGYRTY”, the protein production entry is “failed”.
